Measurements reported in the supplement of paper PMC11246515.
± gives the standard deviation of the averaged measurements.

Experiment: total protein half-life in vivo (active degradation + dilution); higher = more stable protein
[1] = E. coli NCM3722 delta-clpP delta-lon delta-hslV, growth: N-lim chemostat, doubling time 6 h
[2] = E. coli NCM3722 delta-clpP, growth: N-lim chemostat, doubling time 6 h
[3] = E. coli NCM3722 delta-hslV, growth: N-lim chemostat, doubling time 6 h
[4] = E. coli NCM3722 delta-lon, growth: N-lim chemostat, doubling time 6 h
[5] = E. coli NCM3722 delta-smpB, growth: N-lim chemostat, doubling time 6 h
[6] = wild type E. coli NCM3722, growth: C-lim chemostat, doubling time 3 h
[7] = wild type E. coli NCM3722, growth: C-lim chemostat, doubling time 6 h
[8] = wild type E. coli NCM3722, growth: C-lim chemostat, doubling time 12 h
[9] = wild type E. coli NCM3722, growth: N-lim chemostat, doubling time 6 h
[10] = wild type E. coli NCM3722, growth: N-lim chemostat, doubling time 12 h
[11] = wild type E. coli NCM3722, growth: P-lim chemostat, doubling time 6 h
[12] = wild type E. coli NCM3722, growth: P-lim chemostat, doubling time 12 h

Sequence	total protein half-life in vivo [1] [h]	total protein half-life in vivo [2] [h]	total protein half-life in vivo [3] [h]	total protein half-life in vivo [4] [h]	total protein half-life in vivo [5] [h]	total protein half-life in vivo [6] [h]	total protein half-life in vivo [7] [h]	total protein half-life in vivo [8] [h]	total protein half-life in vivo [9] [h]	total protein half-life in vivo [10] [h]	total protein half-life in vivo [11] [h]	total protein half-life in vivo [12] [h]
MTQQITLIKDKILSDNYFTLHNITYDLTRKDGEVIRHKREVYDRGNGATILLYNTKKKTVVLIRQFRVATWVNGNESGQLIESCAGLLDNDEPEVCIRKEAIEETGYEVGEVRKLFELYMSPGGVTELIHFFIAEYSDNQRANAGGGVEDEDIEVLELPFSQALEMIKTGEIRDGKTVLLLNYLQTSHLMD	4.25	3.023 ± 0.017	2.96 ± 0.066	4.03 ± 0.41	3.07 ± 1	2.824 ± 0.026	4.44	6.27 ± 2.4	3.15 ± 0.25	4.71	2.31	4.47 ± 0.2
MTQYSSLLRGLAAGSAFLFLFAPTAFAAEQTVEAPSVDARAWILMDYASGKVLAEGNADEKLDPASLTKIMTSYVVGQALKADKIKLTDMVTVGKDAWATGNPALRGSSVMFLKPGDQVSVADLNKGVIIQSGNDACIALADYVAGSQESFIGLMNGYAKKLGLTNTTFQTVHGLDAPGQFSTARDMALLGKALIHDVPEEYAIHKEKEFTFNKIRQPNRNRLLWSSNLNVDGMKTGTTAGAGYNLVASATQGDMRLISVVLGAKTDRIRFNESEKLLTWGFRFFETVTPIKPDATFVTQRVWFGDKSEVNLGAGEAGSVTIPRGQLKNLKASYTLTEPQLTAPLKKGQVVGTIDFQLNGKSIEQRPLIVMENVEEGGFFGRVWDFVMMKFHQWFGSWFS	6.35 ± 0.48	6.56 ± 0.37	6.22 ± 0.69	6.18 ± 0.099	6.46 ± 0.26	3.19 ± 0.077	6.19 ± 1.3	12.4 ± 0.45	5.989 ± 0.057	14.9 ± 1.2	5.962 ± 0.051	13.2 ± 0.29
MTRPIQASLDLQALKQNLSIVRQAATHARVWSVVKANAYGHGIERIWSAIGATDGFALLNLEEAITLRERGWKGPILMLEGFFHAQDLEIYDQHRLTTCVHSNWQLKALQNARLKAPLDIYLKVNSGMNRLGFQPDRVLTVWQQLRAMANVGEMTLMSHFAEAEHPDGISGAMARIEQAAEGLECRRSLSNSAATLWHPEAHFDWVRPGIILYGASPSGQWRDIANTGLRPVMTLSSEIIGVQTLKAGERVGYGGRYTARDEQRIGIVAAGYADGYPRHAPTGTPVLVDGVRTMTVGTVSMDMLAVDLTPCPQAGIGTPVELWGKEIKIDDVAAAAGTVGYELMCALALRVPVVTV	4.49 ± 0.56	3.6 ± 0.35	3.14 ± 0.1	3.89 ± 0.29	3.37 ± 0.47	3.16 ± 0.19	6.2 ± 0.25	9.9 ± 0.72	3.6 ± 0.21	5.1 ± 0.33	6.81 ± 1.4	11.9 ± 1.2
MTRPVTLSEPHFSQHTLNKYASLMAQGNGYLGLRASHEEDYTRQTRGMYLAGLYHRAGKGEINELVNLPDVVGMEIAINGEVFSLSHEAWQRELDFASGELRRNVVWRTSNGSGYTIASRRFVSADQLPLIALEITITPLDADASVLISTGIDATQTNHGRQHLDETQVRVFGQHLMQGSYTTQDGRSDVAISCCCKVSGDVQQCYTAKERRLLQHTSAQLHAGETMTLQKLVWIDWRDDRQAALDEWGSASLRQLEMCAQQSYDQLLAASTENWRQWWQKRRITVNGGEAHDQQALDYALYHLRIMTPAHDERSSIAAKGLTGEGYKGHVFWDTEVFLLPFHLFSDPTVARSLLRYRWHNLPGAQEKARRNGWQGALFPWESARSGEEETPEFAAINIRTGLRQKVASAQAEHHLVADIAWAVIQYWQTTGDESFIAHEGMALLLETAKFWISRAVRVNDRLEIHDVIGPDEYTEHVNNNAYTSYMARYNVQQALNIARQFGCSDDAFIHRAEMFLKELWMPEIQPDGVLPQDDSFMAKPAINLAKYKAAAGKQTILLDYSRAEVNEMQILKQADVVMLNYMLPEQFSAASCLANLQFYEPRTIHDSSLSKAIHGIVAARCGLLTQSYQFWREGTEIDLGADPHSCDDGIHAAATGAIWLGAIQGFAGVSVRDGELHLNPALPEQWQQLSFPLFWQGCELQVTLDAQRIAIRTSAPVSLRLNGQLITVAEESVFCLGDFILPFNGTATKHQEDE	5.63	–	–	–	–	–	–	–	–	–	–	–
MTSGLERLSNLLSKKDSVFVSDLLREAKVNELDETLSTTRLNHLIDKGYERITLQLDLGGESPGYLEKDKHYREADAALLNVIYPTNLSKINTRRKEQV	4.54	–	–	–	–	–	–	–	–	–	–	–
MTSLYLASGSPRRQELLAQLGVTFERIVTGIEEQRQPQESAQQYVVRLAREKARAGVAQTAKDLPVLGADTIVILNGEVLEKPRDAEHAAQMLRKLSGQTHQVMTAVALADSQHILDCLVVTDVTFRTLTDEDIAGYVASDEPLDKAGAYGIQGLGGCFVRKINGSYHAVVGLPLVETYELLSNFNALREKRDKHDG	4.55 ± 0.58	3.38 ± 0.24	3.17 ± 0.25	3.02	3.26 ± 0.49	3.2 ± 0.29	5.629 ± 0.034	8.84 ± 0.45	3.15 ± 0.4	4.52	5.41	11.9 ± 1.7
MTTFHSLTVAKVESETRDAVTITFAVPQPLQEAYRFRPGQHLTLKASFDGEELRRCYSICRSYLPGEISVAVKAIEGGRFSRYAREHIRQGMTLEVMVPQGHFGYQPQAERQGRYLAIAAGSGITPMLAIIATTLQTEPESQFTLIYGNRTSQSMMFRQALADLKDKYPQRLQLLCIFSQETLDSDLLHGRIDGEKLQSLGASLINFRLYDEAFICGPAAMMDDAETALKALGMPDKTIHLERFNTPGTRVKRSVNVQSDGQKVTVRQDGRDREIVLNADDESILDAALRQGADLPYACKGGVCATCKCKVLRGKVAMETNYSLEPDELAAGYVLSCQALPLTSDVVVDFDAKGMA	4.66 ± 0.67	–	–	–	–	–	–	–	–	–	–	–
MTTHLVWFRQDLRLHDNLALAAACRNSSARVLALYIATPRQWATHNMSPRQAELINAQLNGLQIALAEKGIPLLFREVDDFVASVEIVKQVCAENSVTHLFYNYQYEVNERARDVEVERALRNVVCEGFDDSVILPPGAVMTGNHEMYKVFTPFKNAWLKRLREGMPECVAAPKVRSSGSIEPSPSITLNYPRQSFDTAHFPVEEKAAIAQLRQFCQNGAGEYEQQRDFPAVEGTSRLSASLATGGLSPRQCLHRLLAEQPQALDGGAGSVWLNELIWREFYRHLITYHPSLCKHRPFIAWTDRVQWQSNPAHLQAWQEGKTGYPIVDAAMRQLNSTGWMHNRLRMITASFLVKDLLIDWREGERYFMSQLIDGDLAANNGGWQWAASTGTDAAPYFRIFNPTTQGEKFDHEGEFIRQWLPELRDVPGKVVHEPWKWAQKAGVTLDYPQPIVEHKEARVQTLAAYEAARKGK	5.62 ± 0.31	6.1 ± 1	6.2 ± 0.4	6.08 ± 0.8	5.35 ± 0.34	3.23 ± 0.22	6.25 ± 0.49	11.533 ± 0.011	5.49 ± 0.16	11.1 ± 0.21	6.17 ± 0.76	11.62 ± 0.014
